Experimental data: patent US20260053920A1 (published 2026)

Legend:
[1] = molecular target: T1, BST2 peptide on HLA-A*02:01 (human); experiment: multimer staining
T1 peptide: LLLGIGILVL

[2] = molecular target: T2, IMP2 peptide on HLA-A*02:01 (human); experiment: multimer staining
T2 peptide: NLSALGIFST

[3] = molecular target: T2, IMP2 peptide on HLA-A*02:01; experiment: stated without data

B1: MEL8 (TCR, V domains shown)
Valpha: QKEVEQNSGPLSVPEGAIASLNCTYSDRGSQSFFWYRQYSGKSPELIMSIYSNGDKEDGRFTAQLNKASQYVSLLIRDSQPSDSATYLCAVQKLVFGTGTRLLVSP
Vbeta: NAGVTQTPKFQVLKTGQSMTLQCAQDMNHEYMSWYRQDPGMGLRLIHYSVGAGITDQGEVPNGYNVSRSTTEDFPLRLLSAAPSQTSVYFCASSYSFTEATYEQYFGPGTRLTVT
binding result [1]: recognises | binding result [2]: recognises

B2: CLL9 (TCR)
alpha TRAV12-2*01 TRAJ9 CDR3: CAVGAGGFKTIF
beta TRBV2*02 TRBJ2-7 CDR3: CASSESPLSGNEQYF
binding result [1]: no recognition | binding result [2]: recognises

B3: MEL11 (TCR)
alpha TRAV12-2*01 TRAJ30 CDR3: CAVNYEDDKIIF
beta TRBV9 TRBJ2-7 CDR3: CASSVGVQGSWEQYF
binding result [1]: recognises | binding result [2]: recognises

B4: MEL25 (TCR)
alpha TRAV8-6 TRAJ47 CDR3: CAVSDNGNKLVF
beta TRBV12-4 TRBJ2-7 CDR3: CASSWAGPVEQYF
binding result [1]: recognises | binding result [2]: recognises

B5: MEL56 (TCR)
alpha TRAV12-3 TRAJ35 CDR3: CAMSVGFGNVLHC
beta TRBV27 TRBJ2-7 CDR3: CASSLGLAGNEQYF
binding result [3]: recognises

B6: MEL58 (TCR)
alpha TRAV23DV6 TRAJ54 CDR3: CAARGAQKLVF
beta TRBV6-5 TRBJ1-6 CDR3: CASSYVGLGSPLHF
binding result [3]: recognises
